Conditions: methylation at K27

histone H3: ATXR6 Y243N (SET-domain catalytic mutant) expressed in atxr5 atxr6
other: changes
